Source: US20230029341A1

Molecular target: HLA-A*02:01/NY-ESO-1 (modified, …) peptide-MHC on peptide-loaded T2 cells (human)
Experiment: cell-based or functional assay

Substance: C2057 + C2058 (TCR 1G4:α95LY alpha ECD and beta ECD, each fused to LILRB1 TM and ICD)
- EC50[nM] of MAGE-A3 peptide for activator C563 in Jurkat NFAT-luciferase cells co-expressing this inhibitor; T2 cells with 50 uM NY-ESO-1 peptide: > 10000 nM
